± gives the uncertainty stated by the source.
Assay: amyloid nucleation score (Sup35N fusion, yeast selection) (log enrichment); library NNK3; higher = more nucleation; inactive = no reads after selection
Summary of the method: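 The nucleation score is the log enrichment of output over input reads, calculated with DiMSum and centred on the mode score of non-aggregating sequences. Sequences with under 100 input reads were excluded. Reads came from Illumina sequencing of plasmid inserts from psi-negative yeast expressing Sup35N fused to peptides of 20 random codons, induced 24 hours with 100 μM copper sulfate and grown 7 days at 30°C without adenine and uracil.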

With IISMFYSSKA as the substance, how does the amyloid nucleation score read?
Its amyloid nucleation score is “inactive”.

Which amyloid nucleation score does the source give for IIVTKGAMR here?
Its amyloid nucleation score is -0.87 ± 1.7.

Which amyloid nucleation score does the source give for IIWREVINVAVYRVVAVTHK here?
The amyloid nucleation score was “inactive”.

For IIYILPLCPRV, which amyloid nucleation score is on record?
The amyloid nucleation score was “inactive”.

With IIYRKVVKRCAWITDKEIPG as the substance, how does the amyloid nucleation score read?
Its amyloid nucleation score is “inactive”.

With IKAYSRRSLSSSG as the substance, how does the amyloid nucleation score read?
The amyloid nucleation score was “inactive”.

Which amyloid nucleation score does the source give for IKFSEWMNVGIVWWHYLISG here?
Its amyloid nucleation score is “inactive”.

With IKMNNDGSMILWSLSSPTDL as the substance, how does the amyloid nucleation score read?
The amyloid nucleation score was “inactive”.

With IKNHIIVRIDFGLYGEEKDS as the substance, how does the amyloid nucleation score read?
Its amyloid nucleation score is 0.399 ± 0.19.

With IKNMHRLDFR as the substance, how does the amyloid nucleation score read?
The amyloid nucleation score was -0.501 ± 1.9.

For IKNYCIIYSETPGRNKCGLR, which amyloid nucleation score is on record?
The amyloid nucleation score was 1.01 ± 0.22.

Which amyloid nucleation score does the source give for IKSTTSKVPANMDSWLGTKM here?
The amyloid nucleation score was “inactive”.

With IKVLVWFRSRCGNGANNLVC as the substance, how does the amyloid nucleation score read?
The amyloid nucleation score was “inactive”.

For IKVSECMSAYIVVFWYRMVV, which amyloid nucleation score is on record?
Its amyloid nucleation score is “inactive”.

With IKVTIYPRLTRSNATFMPSM as the substance, how does the amyloid nucleation score read?
Its amyloid nucleation score is “inactive”.

With IKVWRGKVG as the substance, how does the amyloid nucleation score read?
Its amyloid nucleation score is “inactive”.

Which amyloid nucleation score does the source give for IKYLNLVRSVPLFS here?
Its amyloid nucleation score is “inactive”.

Which amyloid nucleation score does the source give for ILAFLERYTLMWFRELYNAS here?
Its amyloid nucleation score is “inactive”.

Which amyloid nucleation score does the source give for ILFIDSSFLIVR here?
The amyloid nucleation score was “inactive”.

Which amyloid nucleation score does the source give for ILFSQETRYELSL here?
The amyloid nucleation score was “inactive”.

For ILFTPMPVVD, which amyloid nucleation score is on record?
Its amyloid nucleation score is “inactive”.

Which amyloid nucleation score does the source give for ILGEWLFCSIIFWGVWDYAG here?
The amyloid nucleation score was “inactive”.

Which amyloid nucleation score does the source give for ILGGGSIFKSRQNMIWYTLS here?
The amyloid nucleation score was 0.207 ± 0.61.

Which amyloid nucleation score does the source give for ILISFNQLKP here?
The amyloid nucleation score was 1.18 ± 0.13.

With ILKGL as the substance, how does the amyloid nucleation score read?
Its amyloid nucleation score is “inactive”.

Which amyloid nucleation score does the source give for ILLIVL here?
Its amyloid nucleation score is 1.68 ± 0.061.

For ILPFRWIVY, which amyloid nucleation score is on record?
Its amyloid nucleation score is “inactive”.

For ILQTRKRVNVLNIVIWQIAF, which amyloid nucleation score is on record?
Its amyloid nucleation score is 1.09 ± 0.18.

Which amyloid nucleation score does the source give for ILSFEVWFGLWSTCGLYPHK here?
Its amyloid nucleation score is “inactive”.

With ILSYARTFVLIDNKVGMLR as the substance, how does the amyloid nucleation score read?
Its amyloid nucleation score is “inactive”.

With ILVFVFSLRRIFAYMAVMSG as the substance, how does the amyloid nucleation score read?
The amyloid nucleation score was “inactive”.

For ILWDKRRSYYCIMGAIYIVR, which amyloid nucleation score is on record?
Its amyloid nucleation score is “inactive”.

For ILWQYQTCC, which amyloid nucleation score is on record?
Its amyloid nucleation score is -0.457 ± 0.73.

For ILYDDSCLFVTASWTSYVFV, which amyloid nucleation score is on record?
Its amyloid nucleation score is 1.4 ± 0.073.

With ILYFDVTISV as the substance, how does the amyloid nucleation score read?
Its amyloid nucleation score is “inactive”.

For IMCRLMSKVYTMPQYEILSF, which amyloid nucleation score is on record?
The amyloid nucleation score was “inactive”.

For IMDDTSQSNRCYYEKVLCRG, which amyloid nucleation score is on record?
The amyloid nucleation score was 1.34 ± 0.092.

Which amyloid nucleation score does the source give for IMHGSNMVRRGLVQY here?
The amyloid nucleation score was “inactive”.

For IMLGRANSIYMH, which amyloid nucleation score is on record?
Its amyloid nucleation score is “inactive”.

With IMMMNLKM as the substance, how does the amyloid nucleation score read?
The amyloid nucleation score was 1.92 ± 0.079.

Which amyloid nucleation score does the source give for IMPPEFVFIFHRMNGHYLGF here?
The amyloid nucleation score was “inactive”.

With IMRSY as the substance, how does the amyloid nucleation score read?
Its amyloid nucleation score is “inactive”.

For INAGF, which amyloid nucleation score is on record?
The amyloid nucleation score was “inactive”.

Which amyloid nucleation score does the source give for INCLDFYTTVYNTRSWIFVH here?
The amyloid nucleation score was “inactive”.

For INFNLVHRLEVFWRVI, which amyloid nucleation score is on record?
Its amyloid nucleation score is “inactive”.

For INFTRSQYRFLIWYASQKMS, which amyloid nucleation score is on record?
Its amyloid nucleation score is “inactive”.

With INFYVSFYIIVTCYVVAHCV as the substance, how does the amyloid nucleation score read?
Its amyloid nucleation score is 1.32 ± 0.15.

Which amyloid nucleation score does the source give for INGDNAPGYYYIMMIPRDIH here?
Its amyloid nucleation score is 0.858 ± 0.12.

For INHLSWCPVYFYFWNPVYLR, which amyloid nucleation score is on record?
The amyloid nucleation score was 1.49 ± 0.11.

For INLFTAYAVSL, which amyloid nucleation score is on record?
The amyloid nucleation score was “inactive”.

With INNLYDVQRGIADFWKSWLV as the substance, how does the amyloid nucleation score read?
The amyloid nucleation score was “inactive”.

For INSSILGSCLWWFLFCF, which amyloid nucleation score is on record?
The amyloid nucleation score was 1.2 ± 0.12.

For INTVLLGYS, which amyloid nucleation score is on record?
The amyloid nucleation score was “inactive”.

For INVDWFSPFGVLKNSSK, which amyloid nucleation score is on record?
The amyloid nucleation score was “inactive”.

For INVVIRSSHFECTGC, which amyloid nucleation score is on record?
Its amyloid nucleation score is 1.15 ± 0.11.

Which amyloid nucleation score does the source give for IPNDYAVAYAEGQLLVCELK here?
Its amyloid nucleation score is “inactive”.

Which amyloid nucleation score does the source give for IPSIWMGISRK here?
Its amyloid nucleation score is “inactive”.

For IPSTMRDDFAYTNCPNNSFL, which amyloid nucleation score is on record?
The amyloid nucleation score was “inactive”.

Which amyloid nucleation score does the source give for IPSWELISGHWS here?
The amyloid nucleation score was “inactive”.

Which amyloid nucleation score does the source give for IPVSHVAMNGECGWVSDIKH here?
Its amyloid nucleation score is “inactive”.

With IPYRLVGMLTVVTCRTSKLC as the substance, how does the amyloid nucleation score read?
Its amyloid nucleation score is “inactive”.

Which amyloid nucleation score does the source give for IQAAEVWMTAPFGFDMEGGR here?
The amyloid nucleation score was “inactive”.

For IQASWFNWKWLL, which amyloid nucleation score is on record?
Its amyloid nucleation score is “inactive”.

With IQDHFELFTNVGSYFQIQPL as the substance, how does the amyloid nucleation score read?
The amyloid nucleation score was “inactive”.

With IQHSFCGRNSDLPLNVWLMW as the substance, how does the amyloid nucleation score read?
The amyloid nucleation score was “inactive”.

Which amyloid nucleation score does the source give for IQISYNWW here?
Its amyloid nucleation score is 0.75 ± 0.3.

Which amyloid nucleation score does the source give for IQMSNLNNTSLQVRRPRPCV here?
The amyloid nucleation score was “inactive”.

With IQSKRRPSDCLPKS as the substance, how does the amyloid nucleation score read?
Its amyloid nucleation score is “inactive”.

For IQSSYSMYIEWL, which amyloid nucleation score is on record?
The amyloid nucleation score was “inactive”.

Which amyloid nucleation score does the source give for IQTQTGTLVSRPLQPTAVVR here?
Its amyloid nucleation score is -0.007 ± 0.82.

For IRDYVFRLYYRLNCMIRKRG, which amyloid nucleation score is on record?
The amyloid nucleation score was “inactive”.

Which amyloid nucleation score does the source give for IRFSGIVAVMISQGGSRREC here?
The amyloid nucleation score was 2.5 ± 0.08.

Which amyloid nucleation score does the source give for IRFVLYISGILSCWFNRWNN here?
The amyloid nucleation score was “inactive”.

With IRGSSKTDSKRTWVK as the substance, how does the amyloid nucleation score read?
The amyloid nucleation score was -0.364 ± 0.7.

For IRKSFVEKMLPLPFSLAAIG, which amyloid nucleation score is on record?
Its amyloid nucleation score is 0.234 ± 0.44.

With IRLCLLSIMWLNGWLSAIHA as the substance, how does the amyloid nucleation score read?
The amyloid nucleation score was “inactive”.

With IRLDSYLDNMSMLLCKYWFC as the substance, how does the amyloid nucleation score read?
The amyloid nucleation score was “inactive”.

With IRLHLLLGFVV as the substance, how does the amyloid nucleation score read?
The amyloid nucleation score was “inactive”.

Which amyloid nucleation score does the source give for IRLPIGQGLC here?
Its amyloid nucleation score is “inactive”.

Which amyloid nucleation score does the source give for IRLWQEHWNWRGRSLFFRWC here?
The amyloid nucleation score was “inactive”.

For IRMHGWPYRLVREICFNGFF, which amyloid nucleation score is on record?
The amyloid nucleation score was 0.028 ± 0.5.

For IRMQNLRFGSLKLAGFIMCD, which amyloid nucleation score is on record?
The amyloid nucleation score was “inactive”.
